Reference: patent US20230129258A1 (Bicycle, published 2023)
Starred links: 1 amine or outer side, 2 acyl side, 3 side chain; linkers in the order of their positions; H or OH if unused. Positions of bridges follow the written chain, without caps; N, C: chain ends. Non-standard residues stand in square brackets, D forms with d. Groups on a side chain read outwards from the residue. Primed or numbered codes have the meaning given here. Chains are numbered I, II in the order given. No end group written: not given here. *: point of attachment. dLys(PYA) = D-lysine Nε-acylated with 4-pentynoic acid, clicked (triazole) to the linker azide, O=C(CCc1cn([*:3])nn1)NCCCC[C@@H](N[*:1])C(=O)[*:2]; TATA = O=C(CC[*:1])N1CN(C(=O)CC[*:2])CN(C(=O)CC[*:3])C1; Biotin = O=C1N[C@H]2[C@H](CS[C@H]2CCCCC(=O)*)N1; 1Nal = N[C@@H](Cc1cccc2ccccc12)C(=O)O; Hyp = O=C(O)[C@@H]1C[C@@H](O)CN1; hArg = N=C(N)NCCCC[C@H](N)C(=O)O; tBuAla = CC(C)(C)C[C@H](N)C(=O)O; PEG12′ = not defined here; Nle = CCCC[C@H](N)C(=O)O

Assays:
[1] = target: T1, cyno (NHP) CD137 extracellular domain (cyno (NHP), UniProt A9YYE7 24-186); assay: SPR direct binding, captured BCY13582, soluble CD137 ECD, n = 1
T1 construct: extracellular domain
T1 sequence (A9YYE7 entry or part of it): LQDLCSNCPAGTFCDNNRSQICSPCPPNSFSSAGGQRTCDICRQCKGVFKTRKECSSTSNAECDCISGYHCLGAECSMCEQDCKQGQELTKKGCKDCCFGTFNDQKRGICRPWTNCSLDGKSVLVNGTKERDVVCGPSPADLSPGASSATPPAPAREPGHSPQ

[2] = target: T2, rat CD137 extracellular domain (rat, UniProt Q4W8J3 24-189); assay: SPR direct binding, captured BCY13582, n = 1
T2 sequence: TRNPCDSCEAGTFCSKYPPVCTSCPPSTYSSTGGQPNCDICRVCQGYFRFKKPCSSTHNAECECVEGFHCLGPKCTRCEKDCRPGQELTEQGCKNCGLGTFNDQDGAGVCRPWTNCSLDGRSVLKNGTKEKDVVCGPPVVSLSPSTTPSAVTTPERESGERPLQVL

[3] = target: T3, mouse CD137 extracellular domain (mouse, UniProt P20334 24-187); assay: SPR direct binding, captured BCY13582, n = 1
T3 construct: extracellular domain
T3 sequence (looked up): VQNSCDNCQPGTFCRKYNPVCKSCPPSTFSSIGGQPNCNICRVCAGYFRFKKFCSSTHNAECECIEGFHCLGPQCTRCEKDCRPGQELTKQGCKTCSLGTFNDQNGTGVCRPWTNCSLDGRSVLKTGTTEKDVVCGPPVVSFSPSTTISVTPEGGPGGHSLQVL

[4] = target: T4, CD137 on Jurkat reporter cells (Promega kit CS196005) (UniProt Q07011 24-255, limits assumed); assay: cell-based or functional assay
T4 sequence (Q07011 24-255 limits assumed): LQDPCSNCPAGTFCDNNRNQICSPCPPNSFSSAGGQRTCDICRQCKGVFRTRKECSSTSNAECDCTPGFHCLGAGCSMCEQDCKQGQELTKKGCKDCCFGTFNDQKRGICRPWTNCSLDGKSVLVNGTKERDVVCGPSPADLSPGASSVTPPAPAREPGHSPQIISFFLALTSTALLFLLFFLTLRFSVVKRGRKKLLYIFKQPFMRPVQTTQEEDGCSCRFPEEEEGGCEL

[5] = target: T5, human CD137 extracellular domain (human, UniProt Q07011 24-186, biotinylated where captured on the streptavidin chip); assay: SPR direct binding, captured BCY13582, soluble CD137 ECD, n = 3
T5 construct: extracellular domain; Section 17 says only 'Recombinant human CD137 (R&D systems)'; also called CD137 (human); Recombinant human CD137 (R&D systems)
T5 sequence (Q07011 24-186): as the sequence (A9YYE7 entry or part of it) above, with L4P, S19N, K50R, I66T, S67P, Y69F, E75G, A149V counted along it

[6] = target: T6, soluble OX40 (UniProt P43489 29-216, limits assumed); assay: SPR, streptavidin captured BCY13582, soluble receptor
T6 construct: also called soluble TNF family receptor OX40
T6 sequence (looked up): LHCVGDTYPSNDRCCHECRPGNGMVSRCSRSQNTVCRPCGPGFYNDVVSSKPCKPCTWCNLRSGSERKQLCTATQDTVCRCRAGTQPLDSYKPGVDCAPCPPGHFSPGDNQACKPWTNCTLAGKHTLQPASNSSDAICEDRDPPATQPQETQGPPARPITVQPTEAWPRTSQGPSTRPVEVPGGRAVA

[7] = target: T7, soluble CD40 (UniProt P25942 21-193, limits assumed); assay: as above
T7 construct: also called soluble TNF family receptor CD40
T7 sequence (P25942 21-193 limits assumed): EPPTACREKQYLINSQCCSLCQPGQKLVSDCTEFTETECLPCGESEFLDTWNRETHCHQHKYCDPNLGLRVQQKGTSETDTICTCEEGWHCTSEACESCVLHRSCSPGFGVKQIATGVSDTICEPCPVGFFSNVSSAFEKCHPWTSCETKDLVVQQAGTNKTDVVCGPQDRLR

[8] = target: T4, CD137 on Jurkat reporter cells (Promega …); assay: cell-based or functional assay; remark: listed apart in the source
[9] = target: T8, METTL24 (human, UniProt Q5JXM2); assay: Retrogenix cell microarray, HEK293 cells over-expressing the protein, detection with AlexaFluor647 streptavidin
T8 construct: full-length protein over-expressed in HEK293 cells
T8 sequence (single chain, looked up): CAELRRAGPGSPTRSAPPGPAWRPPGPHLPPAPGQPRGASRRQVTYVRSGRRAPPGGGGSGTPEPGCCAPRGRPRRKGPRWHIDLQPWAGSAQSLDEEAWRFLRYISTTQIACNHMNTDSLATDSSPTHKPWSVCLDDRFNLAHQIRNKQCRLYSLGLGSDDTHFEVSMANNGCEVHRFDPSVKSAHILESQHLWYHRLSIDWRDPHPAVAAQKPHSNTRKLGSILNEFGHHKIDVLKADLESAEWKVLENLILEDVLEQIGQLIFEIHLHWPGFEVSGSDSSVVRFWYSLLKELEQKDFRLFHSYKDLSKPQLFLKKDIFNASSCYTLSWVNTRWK

[10] = target: T9, APLN (human, UniProt Q9ULZ1); assay: as above
T9 construct: full-length protein over-expressed in HEK293 cells
T9 sequence (single chain, looked up): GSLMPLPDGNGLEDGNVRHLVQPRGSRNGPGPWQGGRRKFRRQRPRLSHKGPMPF

[11] = target: T10, IGFBP1 (human, UniProt P08833); assay: as above
T10 construct: full-length protein over-expressed in HEK293 cells
T10 sequence (single chain, looked up): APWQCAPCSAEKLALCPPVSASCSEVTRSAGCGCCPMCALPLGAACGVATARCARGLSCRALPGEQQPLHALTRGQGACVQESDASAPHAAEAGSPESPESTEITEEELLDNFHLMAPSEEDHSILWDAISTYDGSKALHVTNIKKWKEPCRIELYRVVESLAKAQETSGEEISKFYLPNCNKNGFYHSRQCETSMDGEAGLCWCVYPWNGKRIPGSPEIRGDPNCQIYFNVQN

[12] = target: T11, GPR39 (human, UniProt O43194); assay: as above
T11 construct: full-length protein over-expressed in HEK293 cells
T11 sequence (single chain, looked up): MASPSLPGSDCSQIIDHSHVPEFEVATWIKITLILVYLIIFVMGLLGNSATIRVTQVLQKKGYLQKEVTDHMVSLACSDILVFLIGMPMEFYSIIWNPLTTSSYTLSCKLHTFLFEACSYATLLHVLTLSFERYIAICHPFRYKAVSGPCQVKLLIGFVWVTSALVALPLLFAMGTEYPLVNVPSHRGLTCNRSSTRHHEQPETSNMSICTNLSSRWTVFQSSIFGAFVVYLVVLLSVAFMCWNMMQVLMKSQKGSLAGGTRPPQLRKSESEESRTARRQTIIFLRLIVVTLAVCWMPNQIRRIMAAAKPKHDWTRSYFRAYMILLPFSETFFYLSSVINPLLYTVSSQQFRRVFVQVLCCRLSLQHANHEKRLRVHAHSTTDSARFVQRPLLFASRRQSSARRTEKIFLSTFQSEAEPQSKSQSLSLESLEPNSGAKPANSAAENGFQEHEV

[13] = target: T12, EVA1C (human, UniProt P58658); assay: as above
T12 construct: full-length protein over-expressed in HEK293 cells
T12 sequence (single chain, looked up): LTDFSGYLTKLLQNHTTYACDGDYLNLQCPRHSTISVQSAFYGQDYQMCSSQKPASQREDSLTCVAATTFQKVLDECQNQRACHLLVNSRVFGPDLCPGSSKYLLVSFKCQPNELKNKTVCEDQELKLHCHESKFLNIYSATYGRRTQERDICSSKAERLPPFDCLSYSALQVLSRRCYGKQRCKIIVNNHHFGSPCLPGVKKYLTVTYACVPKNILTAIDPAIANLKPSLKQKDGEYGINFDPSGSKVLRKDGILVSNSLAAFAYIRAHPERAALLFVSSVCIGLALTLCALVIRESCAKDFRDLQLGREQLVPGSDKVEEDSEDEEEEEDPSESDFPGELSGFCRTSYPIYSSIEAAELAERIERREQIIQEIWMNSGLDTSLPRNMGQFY

[14] = target: T13, HMGB2 (human, UniProt P26583); assay: as above
T13 construct: full-length protein over-expressed in HEK293 cells
T13 sequence (single chain, looked up): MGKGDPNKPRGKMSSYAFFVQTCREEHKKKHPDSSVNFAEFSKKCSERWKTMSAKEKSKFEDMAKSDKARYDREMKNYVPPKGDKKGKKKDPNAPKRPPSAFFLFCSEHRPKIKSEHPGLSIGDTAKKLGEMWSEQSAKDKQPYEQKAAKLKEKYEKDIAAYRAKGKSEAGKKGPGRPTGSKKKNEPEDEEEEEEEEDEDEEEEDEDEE

B1: BCY13582 (biotinylated BCY11863) (peptide)
peptide 1: CP[1Nal][dD]CM[hArg]DWSTP[Hyp]WC
peptide 2: Ac-C[tBuAla]PE[dLys(PYA)]PYCFADPY[Nle]CA
peptide 3: Ac-C[tBuAla]PE[dLys(PYA)]PYCFADPY[Nle]CK([PEG12′-Biotin])
modifications: linker I:1-I:5-I:15, II:1-II:8-II:15, III:1-III:8-III:15 via TATA; also: linker at chain B 5 at chain C 5 to a chain's N-terminus via N-(acid-PEG3)-N-bis(PEG3-azide)
notes: also called test peptide
How did the Kd [1] turn out when B1 was run?
The Kd was 4.23 nM.

Does B1 bind [2]?
Result: no binding

Does B1 bind [3]?
Result: no binding

What about the “Arithmetic mean EC50 (nM), HT1376 co-culture” value [4] of the same binder?
Its value is 0.58 nM.

What about the “Arithmetic mean EC50 (nM), MDA-MB-468 co-culture” value [4] of the same binder?
Its value is 0.34 nM.

And the Kd [5]?
The Kd was 8.4 nM.

Does B1 bind [6]?
Result: no binding (tested: 100 nM)

Does B1 bind [7]?
Result: no binding (tested: 100 nM)

What about the “EC50 (nM), HT1376 co-culture” value [8] of the same binder?
Its value is 0.58 nM.

What about the “Emax (fold induction over background), HT1376” value [8] of the same binder?
The value was 57 fold over background.

Does B1 bind [9]?
Result: no binding (tested: 1 µM)

Does B1 bind [10]?
Result: no binding (tested: 1 µM)

Does B1 bind [11]?
Result: no binding (tested: 1 µM)

Does B1 bind [12]?
Result: no binding (tested: 1 µM)

Does B1 bind [13]?
Result: no binding (tested: 1 µM)

Does B1 bind [14]?
Result: no binding (tested: 1 µM)
